{"source": "patent US20060172380", "system": "TAB1 (437-504)"}
{"substance": "TAK1-HA", "values": [{"measurement": "in vitro kinase assay of immunoprecipitated TAK1 (activation of XMEK2 (SEK1), phosphorylation of KN-p38 (MPK2))", "result": "TAB1 increases TAK1 kinase activity"}]}
